Assay results published in the supplement of paper PMC10266784.

B1: library; numbered along this chain (parent)
chain: MAAAAAAAAEQQSSNGPVKKSMREKAVERRSVNKEHNSNFKAGYIPIDEDRLHKTGLRGRKGNLAICVIILLFILAVINLIITLVIWAVIRIGPNGCDSMEFHESGLLRFKQVSDMGVIHPLYKSTVGGRRNENLVITGNNQPIVFQQGTTKLSVENNKTSITSDIGMQFFDPRTQNILFSTDYETHEFHLPSGVKSLNVQKASTERITSNATSDLNIKVDGRAIVRGNEGVFIMGKTIEFHMGGNMELKAENSIILNGSVMVSTTRLPSSSSGDQLGSGDWVRYKLCMCADGTLFKVQVTSQNMGCQISDNPCGNTH

Variants of: B1
Experiment: SGCB cell-surface expression functional score (HA stain, bin4 vs bin1, normalised to synonymous) (log10 ratio); higher = more cell-surface SGCB (functional)
Outline: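 Codon-saturation libraries of HA-tagged, YFP-fused human beta-sarcoglycan were lentivirally transduced at MOI <0.1 into HEK293 cells stably expressing alpha-, gamma- and delta-sarcoglycan. YFP-positive cells were sorted after 72 hours, grown 5–7 days, stained on ice with Alexa Fluor 647 anti-HA, fixed, sorted into four 5% intensity bins and amplicon-sequenced. The functional score is the log ratio of highest-bin to lowest-bin variant frequency, taken as the median over codons and duplicate transductions. Synonymous variants were scaled per section to mean 0, SD 0.5.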

SGCB cell-surface expression functional score (log10) of substitutions, site by site:
P192: W -1.19 | E -1.13 | G -0.57 | S -0.21 | K -1.31 | V -1.19 | L -1.17 | R -1.04 | Y -1.09 | H -1.15 | M -1.22 | A -1.12 | D -1.49 | F -0.5 | I -2.12 | C -0.78 | Q -2.22 | T -1.46 | N -1.53
S193: W -1.15 | F 0.83 | A 0.18 | M -0.52 | E 1.32 | K 0.33 | G 0.24 | Y -0.19 | I 0.78 | C 0.3 | N 0.79 | R 0.17 | T -0.16 | P -0.22 | V 0.52 | H 1.59 | L 0.22
V200: R -1.87 | H -2.51 | E -2.93 | N -3.23 | F -1.83 | Y -1.16 | A -0.04 | Q -0.73 | P -1.16 | L -0.58 | D -1.23 | T -2.11 | W -1.75 | I 0.17 | C -1.14 | S -1.59 | G -1.65 | M -0.63 | K -2.94
S210: F -0.9 | G -0.16 | D -0.42 | A 0.29 | E -1.75 | C -0.17
V195: Q -1.76 | Y -2.58 | L -0.39 | W 0.45 | A 0.11 | N -1.73 | C 0.64 | S -0.44 | G -1.83 | M -0.5 | D -2.29 | P -1.1 | R -1.37 | E -0.23 | F -1.74 | I 0.09 | H -1.52 | T -0.23 | K -1.88
I208: Y -2.38 | S -1.11 | M -0.33 | A -1.44 | K -1.11 | Q -1.96 | N -1.22 | L 0.3 | V 0.49 | E -2.83 | G -1.48 | T -1.57 | D -1.1 | W -1.04 | P -1.33 | H -1.66 | R -1.44 | C -1.23 | F -0.61
A203: L 0 | H -1.81 | G -1.02 | V -0.13 | K -1.01 | M 0.612 | R -1.46 | T -0.59 | Q -0.5 | Y -2.13 | D -1.81 | F -0.62 | P -0.92 | S -1.01 | C 0.38 | E -0.01 | W -0.3 | I -0.24
N199: H 0.18 | F 0.74 | V 0.22 | C -0.28 | L -0.05 | K 0.02 | Q 0.86 | W 1.05 | E -0.68 | T 0.07 | S 0.26 | D 0.38 | I -0.28 | P -1.11 | R -0.3 | M -0.42 | Y -0.67 | G -0.38 | A -0.02
K196: W -0.69 | D -2.29 | S -0.1 | T -0.64 | Q 0.02 | L -0.57 | R 0.33 | M 0.21 | G -0.43 | V -0.07 | C -0.14 | I -0.46 | E -0.37 | N -0.02 | Y -1.19 | P -0.01 | A 0.53 | H 1.37 | F -0.74
R207: M 0.13 | N -0.12 | P -1.15 | K -0.81 | T -0.69 | S -1.22 | H -0.5 | E -2.46 | C -0.91 | V -0.64 | Y -0.73 | D -1.43
